From publication PMC12014896 (2025) come the findings set out here.

The target in this experiment is SARS-CoV-2 spike RBD (Wuhan-Hu-1) (Severe acute respiratory syndrome …, UniProt P0DTC2). Nature of the experiment: SPR.

B1: COVIC-96 (antibody, V domains shown)
VH: QVQLVQSGAEVKKPGSSVKVSCKASGGTFSTSTISWVRQAPGQGLEWMGGIIPLFGSPNYAQKFQGRVTITADESTSTAYMELSSLRFEDTAVYYCARLGQWDLLPRWGQGTLVTVSS
VL: EIVLTQSPGTLSLSPGERATLSCRASQSVSSSYLAWYQQKPGQAPRLLIYGASSRASGTPDRFSGRGSGTDFTLTISRLEPEDFAVYYCQQYGSSYTFGQGTKLEIK
Take B1: binding was put at a Kd of 92.2 nM.

B2: COVIC-185 (antibody, V domains shown)
VH: QVQLVQSGAEVKKPGASVRVSCKASGYTFTGYYMHWVRQAPGQGLEWMGWINPISDGTNYAQKFQGWVTMTRDTSISTVYMELSRLRSDDTAVYYCARGGSRCSGGNCYGWAYDAFDIWGQGTMITVSS
VL: QSALTQPASVSGSPGQSITISCTGTSSDVGGYNFVSWYQQHPGKAPKLMIYDVSKRPSGVSNRFSGSKSGNTASLTISGLQAEDEADCYCSSYTSSSTFVFGTGTKVTVL
For the molecule B2, the Kd was 12.3 nM.

B3: COVIC-267 (antibody, V domains shown)
VH: EVQLVESGGGLVQPGGSLRLSCTVSGFSLSSYAMSWVRQAPGKGLEWIGIIGNSGNTYYASWAKGRFTISRDNSKNTLYLQMNSLRAEDTAVYYCARNWDPDSYEYTYATNSFDPWGQGTLVTVSS
VL: DIQMTQSPSSLSASVGDRVTITCQASESISSYLAWYQQKPGKAPKLLIYRASTLESGVPSRFSGSGSGTDFTLTISSLQPEDFATYYCQCTYGSSSSGSYGNAFGGGTKVEIK
In turn, B3 gave a Kd of 1.95 nM.

B4: COVIC-147 (antibody, V domains shown)
VH: EVQLVESGGGLIQPGGSLRLSCAASGFTVSSIYMSWVRQAPGKGLEWVSIIYSRGSTDYADSVKGRFTISRDISKNTLYLQMNSLRAEDTAVYYCARDGTMVRGVHAFDIWGQGTMVTVSS
VL: DIQMTQSPPSLSASIGDRVTITCQASQDISNYLNWYQQKPGKAPKLLIYDASNLETGVPSRFSGSGSGTDFTLTISNLQPEDIVTYYCQQYDNLPSSFGQGTKLEIKR
As for B4, binding was characterised by a dissociation constant (Kd) of 2.3 nM.

B5: COVIC-335 (antibody, V domains shown)
VH: QVQLVESGGGVVQPGRSLRLSCAASGFTFSRYGMHWVRQAPGKGLEWVALISSGGSNKYYADSVKGRFTISRDNSKNTLYLEMNSLRAEDTAVYYCAKDAIYDYIWGAYRENWFDPWGQGTLVTVSS
VL: DIQMTQSPSSLSASVGDRVTITCRASQSISNYLNWYQQKPGKAPNLLIYAASSLQSGVPSRFSGSGSGTDFTLTISSLQPEDFATYYCQQTSSPPLTFGQGTKVEIK
B5: the dissociation constant Kd turned out to be 9 nM.

B6: COVIC-28 (antibody, V domains shown)
VH: QVQLVQSGAEVKKPGASVKVSCKASGYTFTSYYMHWVRQAPGQGLEWMGIINSSGGSTSYAQKFQGRVTMTRDTSTSTVYMELSSLRSEDTAVYYCARPPRNYYDRSGYYQRAEYFQHWGQGTLVTVSS
VL: DIQLTQSPSSLSASVGDRVTITCQASQDISNYLNWYQQRPGKAPKLLIYDASNLETGVPSRFSGSGSGTDFTFTISSLQPEDIATYYCQQYDNPPLTFGGGTKLEIK
Turning to B6, the affinity, expressed as Kd, was 12.3 nM.

B7: COVIC-97 (antibody, V domains shown)
VH: EVQLVESGPEVKKPGTSVKVPCKASGFTFTSSAVQWVRQARGQRLEWIGWIVVGSGNTNYAQKFQERVTITRDMSTSTAYMELSSLRSEDTAVYYCAAPSCSGGRCYDGFDIWGQGTMVTVSS
VL: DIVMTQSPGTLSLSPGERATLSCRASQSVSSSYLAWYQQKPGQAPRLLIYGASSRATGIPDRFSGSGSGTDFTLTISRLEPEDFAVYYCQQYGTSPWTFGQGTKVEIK
For the molecule B7, the affinity, expressed as Kd, was 4.96 nM.

B8: COVIC-157 (antibody, V domains shown)
VH: EVQLVESGGGLIQPGGSLRLSCAASGFTVSSNYMNWVRQAPGKGLEWVSVIYSGGSTYYADSVKGRFTISRDNSKNTLYLQMNSLRTEDTAVYYCARDLVAYGMDVWGQGTTVTVSS
VL: DIQLTQSPSFLSASVGDRVTITCWASQGISSYLAWYQQKPGKAPKVLIYAASTLQSGVPSRFSGSGSGTEFTLTISSLQPEDFATYYCQLLNSNPLTFGGGTKVEIKR
Molecule B8 displayed an equilibrium dissociation constant (Kd) of 6.65 nM.

B9: COVIC-150 (antibody, V domains shown)
VH: EVQLVESGGGLIQPGGSLRLSCAASGVTVSSNYMSWVRQAPGKGLEWVSVIYSGGSTFYADSVKGRFTISRDNSKNTLYLQMNSLRAEDTAVYYCARDLSYYGMDVWGQGTTVTVSS
VL: DIQLTQSPSFLSASVGDRVTITCWASQGISSYLAWYQQKPGKAPKLLIYAASTLQSGVPSKFSGSGSGTEFTLTISSLQPEDFATYYCQQLNSYPSSFGQGTKLEIKR
Regarding B9, the Kd is 141 nM.

B10: COVIC-338 (antibody, V domains shown)
VH: EVQLVESGGGLVQPGRSLRLSCAASGLTFEDYAMHWVRQPPGKGLEWVSGVSWNSGTIGYADSVKGRFTISRDNAKNSLYLHMRSLGAEDTAMYYCAKDMGGRFSFFSLENDAFDIWGQGTMVIVSS
VL: SYELTQPPSVSVSPGQTARITCSGDALPKQSTYWYQQKPGQAPVLVIYKDIERPSGIPERFSGSSSGTTVTLTISGVQAEDEADYYCQSADSSDTYVFGTGTKVTVL
In turn, B10 displayed a Kd of 0.00664 nM.

B11: COVIC-334 (antibody, V domains shown)
VH: QMQLVQSGPEVKKPGTSVKVSCKASGFTFSSSAVQWVRQARGQGLEWIGWIVVGSGNANYAQKLQERVSITRDMSTSTAYMELSSLRPEDTAVYYCAAPHCSRTICHDGFDMWGQGTMVTVSS
VL: EIVLTQSPGTLSLSPGERATLSCRASQSVRSSYLAWYQQKPGQAPRLLMFVASSRATGIPDRFSGSGSGTDFTLTISRLEPEDFAVYYCQQYDTSPWTFGQGTKVEIK
For B11, the Kd was determined as 0.0568 nM.

B12: COVIC-56 (antibody)
chain 1: not shown
chain 2: QVQLQESGGGLVQAGGSLRLSCAASGRTFSEYAMGWFRQAPGKEREFVATISWSGGSTYYTDSVKGRFTISRDNAKNTVYLQMNSLKPDDTAVYYCAAAGLGTVVSEWDYDYDYWGQGTQVTVSSGGGGSGGGGSKRTVAAPSVFIFPPSDEQLKSGTASVVCLLNNFYPREAKVQWKVDNALQSGNSQESVTEQDSKDSTYSLSSTLTLSKADYEKHKVYACEVTHQGLSSPVTKSFNRGEC
As for B12, binding was characterised by a dissociation constant (Kd) of 94.2 nM.

B13: COVIC-301 (antibody, V domains shown)
VH: EVQLVESGGGLIQPGGSLRLSCAASGVTVSSNYMSWVRQAPGKGLEWVSIIYPGGSRFYADSVKGRFTISRDNSKNTLYLQMNSLRAEDTAVYYCAREVRGWLDPWGQGTLVTVSS
VL: DVVMTQSPSFLSASVGDRVTITCRASQGISNYLAWYQQKPGKAPKLLIYASSTLQSGVPSRFSGSGSGTEFTLTISSLQPEDFATYYCQHLNSYPHFGQGTRLEIKR
B13 registered a Kd of 1.55 nM.

B14: COVIC-303 (antibody, V domains shown)
VH: QVTLKESGPVLVKPTETLTLTCTVSGFSLSNARMGVSWIRQPPGKALEWLAHIFSNGEKSYSTSLKSRLTISKDTSKSQVVLTMTNMDPVDTATYYCARTLDYYDSSGYLVGGAFDIWGQGTMVTVSS
VL: QPGLTQPPSVSLAPGQTARITCGGNNIGSKSVHWYQQKPGQAPVLVVYDDSDRPSGIPERFSGSNAGNTATLTISRVEAGDEADYYCQVWDSRSDQYVFGTRTKLTVLG
The molecule B14 gave a Kd of 0.168 nM.

B15: COVIC-260 (antibody, V domains shown)
VH: QVQLQESGPGLVKPSETLSLTCSVSGDSISSSDYSWGWIRQPPGKGLEWIGTIYYIKNTYYNPSLRSRVTLSVDTSKNLFSLKLSSVTAADTAVYYCARERPPFDVVVVPAARPYNWFDPWGLGTLVIVSS
VL: QSVLMQPPSVSGAPGQRVTISCTGSSSNIGAGYDVHWYQQLPGTAPKLLIYGNNNRPSGVPDRFSGSKSGTSASLAITGLQADDEADYYCQSYDSSLSGSKVFGGGTKLTVLG
In turn, B15 returned a Kd of 0.0696 nM.

B16: COVIC-259 (antibody, V domains shown)
VH: EVQLVESGGGVVQPGRSLRLSCAASGFTFSSYAMHWVRQAPGKGLEWVAVLSYDGSNKYNADSVKGRFTISRDNSKNTLYLQMNSLRVEDTAMYYCARDGVSVTMVRGVIGPLCDYWGQGTLVTVSS
VL: not shown
B16: the Kd was 2.1 nM.

B17: COVIC-300 (antibody, V domains shown)
VH: EVQLVESGGGLIQPGGSLRLSCAASGFIVSSNYMSWVRQAPGKGLEWVSVIYSGGITYFADSVKGRFTISRDISKNTLYLQMNSLRAEDTAVYYCARDRRLPHYYYGLDVWGQGTTVTVSS
VL: QSVLTQPASVSGSPGQSITISCTGTSSDVGGYNYVSWYQQHPGKAPTLIIYEVTSRPSGVSNRFSGSKSGNTASLTISGLQAEDEADYYCSSYTTSNTLGGVFGTGTKVTVL
For B17, the Kd turned out to be 1.13 nM.

B18: COVIC-94 (antibody, V domains shown)
VH: EVQLVESGGGLVQPGGSLRLSCAASGFTFSPSWMGWFRQAPGKEREFVATINEYGGRNYADSVKGRFTISADNSKNTAYLQMNSLKPEDTAVYYCARVDRDFDYWGQGTLVTVSS
As to B18, the Kd was determined as 5.62 nM.

B19: COVIC-148 (antibody, V domains shown)
VH: QVQLVQSGAEVKKPGASVKVSCKASGYTFTSYDINWVRQATGQGLEWMGWMNPNSGNTGYAQKFQGRVTMTRDTSINTAYMELSSLRSEDTAVYFCARGGRYCSDVTCYSGEPFDYWGQGTLVTVSS
VL: EIMLTQSPDFQSVTPKEKVTITCRASQSIGSSLHWYQQKPDQSPKLLIKFASQSISGVPSRFSGSGSGTDFTLTINSLEAEDAAAYYCHQSSSLPHTFGPGTKVEIKR
For the molecule B19, the Kd was 1.85 nM.

B20: COVIC-359 (antibody, V domains shown)
VH: EVQLVESGGGLVQPGGSLRLSCKASGISVAPHAVTWVRQAPGKGLEWIGVIASNADTYYASWAKGRFTISRDNSKNTLYLQMNSLRAEDTAVYYCARHPGSAGYGYTYYYAMDPWGQGTLVTVSS
VL: DIQMTQSPSSLSASVGDRVTITCKASEDIRYGLNWYQQKPGKAPKLLIYGANTLEAGVPSRFSGSGSGTDYTLTISSLQPEDFATYYCQQGYSTPLTFGGGTKVEIK
With B20, the Kd amounted to 0.0139 nM.

B21: COVIC-361 (antibody, V domains shown)
VH: EVQLVESGGGLVQPGGSLRLSCKASGISVAPHAVTWVRQAPGKGLEWIGVIASNADTYYASWAKGRFTISRDNSKNTLYLQMNSLRAEDTAVYYCARHPGSAGYGYTYYYAMDPWGQGTLVTVSS
VL: DIQMTQSPSSLSASVGDRVTITCQASQDVKYAINWYQQKPGKAPKLLIYGTSSRGEGVPSRFSGSGSGTDYTLTISSLQPEDFATYYCQQGYVVSIFFGGGTKVEIK
On to B21, for which binding was characterised by a dissociation constant (Kd) of 0.0241 nM.

B22: COVIC-298 (antibody, V domains shown)
VH: EVQLVQSGAEVKKPGESLKISCQGSGFSFSNYWIGWVRQMPGKGLEWMGIIYPDDSDTRYSPSFQGQVTISADKSISTAFLQWSSLKASDTAMYYCATRTGWTNDAFDIWGQGTMVTVSS
VL: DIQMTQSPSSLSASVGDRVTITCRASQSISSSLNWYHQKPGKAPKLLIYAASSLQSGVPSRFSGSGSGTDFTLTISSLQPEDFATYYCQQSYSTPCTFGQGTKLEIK
For the molecule B22, the affinity, expressed as Kd, was 0.629 nM.
